Experimental data from patent US20150216990A1 (TUFTS MEDICAL CENTER, published 2015).
The star is where a group is joined. Palmitoyl = CCCCCCCCCCCCCCCC(=O)*

Molecular target: T1, human PAR1 (thrombin receptor) on human platelets (human, UniProt P25116 42-425)
T1 sequence (looked up): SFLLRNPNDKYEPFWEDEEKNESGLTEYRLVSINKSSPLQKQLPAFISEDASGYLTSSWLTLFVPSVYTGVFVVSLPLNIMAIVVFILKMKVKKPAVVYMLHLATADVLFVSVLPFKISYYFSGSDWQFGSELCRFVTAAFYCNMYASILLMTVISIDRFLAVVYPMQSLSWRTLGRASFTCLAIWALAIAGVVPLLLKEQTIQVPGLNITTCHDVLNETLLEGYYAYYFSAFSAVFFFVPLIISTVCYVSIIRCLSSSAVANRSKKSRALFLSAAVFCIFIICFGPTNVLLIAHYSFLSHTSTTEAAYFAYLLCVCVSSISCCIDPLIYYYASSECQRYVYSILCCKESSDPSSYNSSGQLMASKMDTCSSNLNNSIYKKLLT
Test: cell-based or functional assay

right shift of thrombin-induced aggregation of human platelets: 5 fold
Binder: Palmitoyl-KKSRALF-NH2 (also: acetate salt) [PZ-128 (palmitate-KKSRALF-NH2)]
